Test: soluble on expression in E. coli; label from the status in PepcDB or PDB records

| Sequence | soluble on expression in E. coli |
| --- | --- |
| MAHSTIPTLLCFCDEPLKRTNEGAEHVNQARRYAKWHVYRERGYETVPPTENPDSLLAACIAVARLSETAFEDAFGDIEAQIRSHYDDSTVELPFADADGSDILVYKKDIAVRPDPMTFDPPVLEQFLGQFSGDSDSPVVPAKADLDREVFDDLDFELKSVSGMHYLHNDGYDNERTVQSSQRLGTDPDATVEMIPVDPAEFGNFQHYVTSNLIYQARDVLLRMGVKPPIAFRAQGQGKYRATLEQQACPQYENYWDATADIQSWEPK | not soluble |
| MAIAKTDVLKFTTEVQPIGKQQYMELSKDIFVFSYLCGGINFTDIANLTNENIQNGRLHYIRQKTKKPIKIGIPQEAMQIIEKYSKESKGYLFPILDSKIHKTALQKQNRIHKILGKVNKNLKLLAAQLGVEANLTTYVARHSFASVLKKSGVNIALISEALGHSDLATTQIYLDSFDNEQVDEAMRNLLEHHHHHH | not soluble |
| MAIESEVLVIGGGLGGLTSALAAAREGADVRLVSYKQSTLRQASGLVDVLGYTPDGDGPLTDPYEAIPSLPEAHPYRKVGVQTVRDALSLFDDAVPTYEGEHTDTNALLPTHGGSIKPTARYPAGASAGLASDTRDTLLVGIEEMVDFDAPHVAAHLDATGVPFDVRGETIRFPGDLRADAKVTRYAKLLDTNSEVAVRGRMVPAREALAQRVNPLLEDEERVGFPAILGDDNPGAIRDALGDHLGVDVFEVPMGPPSLPGLRLEDALFSALDEAGASIETGNPVVDFDGEDRIEKVFIEKNGAKIPNSADQYVLATGGFVGKGVESDREGVYEPVFDCHIPHAADRYDWFEGELFGDHEFARYGVATDDDLRPLDASEHSEFENLRAAGSVLGGYDFAAEKSGSGVSIATGYAAGQRAAQEARLEHHHHHH | soluble |
| MAIETILVINKSGGLIYQRNFTNDEQKLNSNEYLILASTLHGVFAIASQLTPKALQLTQQTNIENTIPYIPYVGMSSNRSDTRNGGGNNNKHTNNEKLGSFKGDDFFKEPFTNWNKSGLRQLCTDQFTMFIYQTLTGLKFVAISSSVMPQRQPTIATTDKPDRPKSTSNLAIQIADNFLRKVYCLYSDYVMKDPSYSMEMPIRSNLFDEKVKKMVENLQ | soluble |
| MAIKGPRKHLKRLAAPANWQLPRKVKTFTVRPSPGPHSMDKSLPLLLVVRDVLKYADNAREAKKIIQTGKILIDGLKRKEYKHPAGLMDVLSIPEMDETYLVLFDESGRISLKKTDKTDVKLCKIVNKTVVKGGNIQLNLHDGRNQIVKVSDAAKAEEDVYKTGDSVLISIPEQSIAGHVAFGEGKLAYITGGKHVGEFAKIVEVENRALYSDIVTLENKDGEKFKTVKPYVFIVGQDEPVISMLEHHHHHH | soluble |
| MAILIPASFGRLTITSRAQVRVRVSASANQRTIRRDSVDWVKETSSFFEEDKRPIMLFDGVCNLCNGGVKFVRDHDRNRSIRFEALQSEAGKKLLLRSGRAPDDISSVVLVENDRSYIKSEAVLKIMKYIDLPFPQLAFFLQFAPLFVRDFLYENVANNRYAMFGRSDSCEL | soluble |
| MAIRSSVLALCVATLLTGCQNLNTNTLMQSGAQAFQAATLSDAQVKALSDQSCEQMDKEAKIAPADSKYTQRLNKIADALGHDINGTPANYKVYLEKDVNAWAMANGCIRVYSGLMDMMNDNEVEGVLGHEMGHVALGHTRKAMQVAYAATAARTAIASAGGVAASLSQSQLADLGEKLVNSQFSQSQESQADDYSFDLLKKRGINREGLASSFEKLAKLDASHESSMFDSHPSSEGRAKHIRERITAEKLEHHHHHH | soluble |
| MAISKRHIGPYIIRETLGEGSFGKVKLATHYKTQQKVALKFISRQLLKKSDMHMRVEREISYLKLLRHPHIIKLYDVITTPTDIVMVIEYAGGELFDYIVEKKRMTEDEGRRFFQQIICAIEYCHRHKIVHRDLKPENLLLDDNLNVKIADFGLSNIMTDGNFLKTSCGSPNYAAPEVINGKLYAGPEVDVWSCGIVLYVMLVGRLPFDDEFIPNLFKKVNSCVYVMPDFLSPGAQSLIRRMIVADPMQRITIQEIRRDPWFNVNLPDYLRPMEEVQGSYADSRIVSKLGEAMGFSEDYIVEALRSDENNEVKEAYNLLHENQVIQEKLEHHHHHH | soluble |
| MAISVVDLFSIGIGPSSSHTVGPMRAALTYISEFPSSHVDITLHGSLAATGKGHCTDRAVLLGLVGWEPTIVPIDAAPSPGAPIPAKGSVNGPKGTVSYSLTFDPHPLPEHPNAVTFKGSTTRTYLSVGGGFIMTLEDFRK | not soluble |
| MAKASSSFVCQNCGAAFNRWQGKCEACGEWNTLVEEAGDNAVPVSIRAKRRGRTFKLESLAGKSNDAPRLPSGMAELDRVTGGGFVRGSVLLVGGDPGIGKSTLLTQATSLMAKAGHRTVYISGEEAIAQVRLRAERLGLASAPVELAAETSVEDIVATLSEGATPKLIVIDSIQTMWTDTVESAPGTVTQVRASAQALIRFAKKTGAAIILVGHVTKDGQIAGPRVVEHMVDAVLSFEGEGSQQFRILRSVKNRFGPTDEIGVFEMTGLGLREVSNPSELFLSERDLGSPGTAVFAGIEGTRPVLVELQALVAPSTLGTPRRAVVGWDSARLSMVLAVLEAHCGVKLSGYDVYFNVAGGLRINEPAADLAAAAALVSSLANAPLPTDAVYFGEISLSGAVRPVAQTPARLKEAAKLGFARAVLPEQTRGEAPADAGLALQSVGGLSSLVADIAARGTRRGDDDGAPRTKAASNATPARFRRQEALEHHHHHH | soluble |
| MAKETVCVTGANGFIGSWIIRTLIEKGYTKIHASIYPGSDPTHLLQLPGSDSKIKIFEADLLDSDAISRAIDGCAGVFHVASPCTLDPPVDPEKELVEPAVKGTINVLEAAKRFNVRRVVITSSISALVPNPNWPEKVPVDESSWSDLDFCKSRQKWYPISKTLAEKAAWEFSEKHGTNIVTIHPSTCLGPLLQPNLNASCAVLLQLLQGSTETQEHHWLGVVHVKDVAKGHVMLFETPDASGRFLCTNGIYQFSEFAALVSKLFPEFAVHKFDKETQPGLTSCNDAAKRLIELGLVFTAVEDAVKETVQSLRDKGFL | soluble |
| MAKEWGYASHNGPDHWHELFPNAKGENQSPIELHTKDIRHDPSLQPWSVSYDGGSAKTILNNGKTCRVVFDDTYDRSMLRGGPLPGPYRLRQFHLHWGSSDDHGSEHTVDGVKYAAELHLVHWNPKYNTFKEALKQRDGIAVIGIFLKIGHENGEFQIFLDALDKIKTKGKEAPFTKFDPSSLFPASRDYWTYQGSFTTPPCEECIVWLLLKEPMTVSSDQMAKLRSLLSSAENEPPVPLVSNWRPPQPINNRVVRASFKHHHHHH | soluble |
| MAKGDVITLNFETFVDSDTQVKVTRLTPTDVICHRNYFYQKCFTQDGKKLLFAGDFDGNRNYYLLNLETQQAVQLTEGKGDNTFGGFISTDERAFFYVKNELNLMKVDLETLEEQVIYTVDEEWKGYGTWVANSDCTKLVGIEILKRDWQPLTSWEKFAEFYHTNPTCRLIKVDIETGELEVIHQDTAWLGHPIYRPFDDSTVGFCHEGPHDLVDARMWLVNEDGSNVRKIKEHAEGESCTHEFWIPDGSAMAYVSYFKGQTDRVIYKANPETLENEEVMVMPPCSHLMSNFDGSLMVGDGCDAPVDVADADSYNIENDPFLYVLNTKAKSAQKLCKHSTSWDVLDGDRQITHPHPSFTPNDDGVLFTSDFEGVPAIYIADVPESYKHLEHHHHHH | soluble |
| MAKISEIMLLQQPEQPALAIEVQTYMKGMSQAIGENFVRIDSLFKKQGEVTTDIPFVEYPDFESLTEDRIKMIIGLKSSKPLQGDEKIQSVILPARRIVVCLHRGNYNELAQLYNEMTEWIKTNGYKASGTSIEYYYSNPDVPEEEHVTRVEMPLL | not soluble |
| MAKKDEVGGRVLQDVFLDWAKKYGPVVRVNVFHKTSVIVTSPESVKKFLMSTKYNKDSKMYRALQTVFGERLFGQGLVSECNYERWHKQRRVIDLAFSRSSLVSLMETFNEKAEQLVEILEAKADGQTPVSMQDMLTYTAMDILAKAAFGMETSMLLGAQKPLSQAVKLMLEGITASRNTLAKFLPGKRKQLREVRESIRFLRQVGRDWVQRRREALKRGEEVPADILTQILKAEEGAQDDEGLLDNFVTFFIAGHETSANHLAFTVMELSRQPEIVARLQAEVDEVIGSKRYLDFEDLGRLQYLSQVLKESLRLYPPAWGTFRLLEEETLIDGVRVPGNTPLLFSTYVMGRMDTYFEDPLTFNPDRFGPGAPKPRFTYFPFSLGHRSCIGQQFAQMEVKVVMAKLLQRLEFRLVPGQRFGLQEQATLKPLDPVLCTLRPRGWQPAPPPPPCHHHH | soluble |
